Assay [1] concerns the target AQP2 protein (eukaryotic expression, purified; Flag-Mcherry tag excised) (UniProt P41181). Kind of assay: SPR; BIAcore T200; AQP2 immobilised on CM5 chip by amine coupling (10 mM NaAc, pH 4.0); MIAC peptide injected; HBS-EP buffer; equilibrium Req values of 5 concentrations fitted to 1:1 binding.
Assay [2] deals with chemosynthetic peptide MIAC labeled by CY5. The assay is described as follows: MST; CY5-labeled MIAC with AQP2 protein, incubated 5 min at room temperature, premium-coated capillaries, Monolith NT.115.

For chemically synthesized MIAC polypeptide, the Kd (commonly the equilibrium constant for the complex coming apart) in assay [1] was 5.13 µM.

B1: AQP2 protein (eukaryotic expression, purified; Flag-Mcherry tag excised) (natural protein)
chain: MWELRSIAFSRAVFAEFLATLLFVFFGLGSALNWPQALPSVLQIAMAFGLGIGTLVQALGHISGAHINPAVTVACLVGCHVSVLRAAFYVAAQLLGAVAGAALLHEITPADIRGDLAVNALSNSTTAGQAVTVELFLTLQLVLCIFASTDERRGENPGTPALSIGFSVALGHLLGIHYTGCSMNPARSLAPAVVTGKFDDHWVFWIGPLVGAILGSLLYNYVLFPPAKSLSERLAVLKGLEPDTDWEEREVRRRQSVELHSPQSLPRGTKA
B1 yielded a dissociation constant Kd in assay [2] of 6.92 µM.

Source of the values: PMC9484220.
